# Measurements reported in patent publication US20150274841A1 (DYAX, published 2015).
# Target: T1, human plasma kallikrein (PKal) (human, UniProt P03952 20-638)
# T1 construct: Active PKal is cleaved at the marked R/I site into two disulfide-linked chains; also called human Pkal; active PKal
# Test: Ki,app; Fab inhibition of PKal cleavage of a substrate peptide, Morrison fit
# Method: Briefly, PKal and a Fab at various concentrations are incubated together for 1 hour at 30° C. A substrate peptide (cleavable by PKal) is then added to this PKal-Fab mixture. The rate of substrate peptide cleavage/proteolysis is then measured, and plotted against the concentrations of the Fab. This plot is then fit to the Morrison equation, which calculates the K_{i,app} value. The results thus obtained are shown in FIGS. 5A-5D and Table 3 below: […]
# T1 sequence (P03952 20-638 limits assumed): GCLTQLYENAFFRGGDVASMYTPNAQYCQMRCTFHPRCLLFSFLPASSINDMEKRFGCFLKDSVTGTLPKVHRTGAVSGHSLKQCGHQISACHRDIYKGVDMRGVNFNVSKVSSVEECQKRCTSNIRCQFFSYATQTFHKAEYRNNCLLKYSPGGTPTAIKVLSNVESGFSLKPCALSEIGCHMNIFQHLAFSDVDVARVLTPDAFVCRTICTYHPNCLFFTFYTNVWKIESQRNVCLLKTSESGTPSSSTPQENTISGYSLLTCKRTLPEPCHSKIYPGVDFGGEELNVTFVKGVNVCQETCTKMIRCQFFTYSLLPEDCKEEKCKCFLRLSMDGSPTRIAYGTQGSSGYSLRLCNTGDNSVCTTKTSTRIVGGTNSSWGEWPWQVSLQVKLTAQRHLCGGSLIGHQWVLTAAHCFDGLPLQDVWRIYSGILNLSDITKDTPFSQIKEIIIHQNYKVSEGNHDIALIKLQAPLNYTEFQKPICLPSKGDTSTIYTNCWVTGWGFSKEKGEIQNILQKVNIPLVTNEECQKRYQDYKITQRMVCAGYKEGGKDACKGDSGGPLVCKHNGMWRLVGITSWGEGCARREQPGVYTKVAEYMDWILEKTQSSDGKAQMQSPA
row,Binder,Ki [nM]
1,"M0200-A10 (Fab, V domains shown, HC CDR3 variant of M0162-A04, tested as Fab) VH: EVQLLESGGGLVQPGGSLRLSCAASGFTFSHYIMMWVRQAPGKGLEWVSGIYSSGGITVYADSVKGRFTISRDNSKNTLYLQMNSLRAEDTAVYYCAYRRTGVPRRDSFDIWGQGTMVTVSS VL: DIQMTQSPSTLSASVGDRVTITCRASQSISSWLAWYQQKPGKAPNLLIYKASTLESGVPSRFSGSGSGTEFTLTISSLQPDDFATYYCQQYNTYWTFGQGTKVEIK",0.25
2,"M0202-E06 (Fab, V domains shown) VH: EVQLLESGGGLVQPGGSLRLSCAASGFTFSHYIMMWVRQAPGKGLEWVSGIYSSGGITVYADSVKGRFTISRDNSKNTLYLQMNSLRAEDTAVYYCAYRRRGVPRRDDFDIWGQGTMVTVSS VL: DIQMTQSPSTLSASVGDRVTITCRASQSISSWLAWYQQKPGKAPNLLIYKASTLESGVPSRFSGSGSGTEFTLTISSLQPDDFATYYCQQYNTYWTFGQGTKVEIK",0.06
3,"M0202-H03 (Fab, V domains shown) VH: EVQLLESGGGLVQPGGSLRLSCAASGFTFSHYIMMWVRQAPGKGLEWVSGIYSSGGITVYADSVKGRFTISRDNSKNTLYLQMNSLRAEDTAVYYCAYRRTGVPRWDDFDIWGQGTMVTVSS VL: DIQMTQSPSTLSASVGDRVTITCRASQSISSWLAWYQQKPGKAPNLLIYKASTLESGVPSRFSGSGSGTEFTLTISSLQPDDFATYYCQQYNTYWTFGQGTKVEIK",0.1
4,"M0201-A07 (Fab, V domains shown) VH: EVQLLESGGGLVQPGGSLRLSCAASGFTFSHYIMMWVRQAPGKGLEWVSGIYSSGGITVYADSVKGRFTISRDNSKNTLYLQMNSLRAEDTAVYYCAYRRTGVPRRDEFDIWGQGTMVTVSS VL: DIQMTQSPSTLSASVGDRVTITCRASQSISSWLAWYQQKPGKAPNLLIYKASTLESGVPSRFSGSGSGTEFTLTISSLQPDDFATYYCQQYNTYWTFGQGTKVEIK",0.1
5,"M0201-H06 (Fab, V domains shown) VH: EVQLLESGGGLVQPGGSLRLSCAASGFTFSHYIMMWVRQAPGKGLEWVSGIYSSGGITVYADSVKGRFTISRDNSKNTLYLQMNSLRAEDTAVYYCAYRRTGVPRRDAFDIWGQGTMVTVSS VL: DIQMTQSPSTLSASVGDRVTITCRASQSISSWLAWYQQKPGKAPNLLIYKASTLESGVPSRFSGSGSGTEFTLTISSLQPDDFATYYCQQYNTYWTFGQGTKVEIK",0.6
6,"M0202-C02 (Fab, V domains shown) VH: EVQLLESGGGLVQPGGSLRLSCAASGFTFSHYIMMWVRQAPGKGLEWVSGIYSSGGITVYADSVKGRFTISRDNSKNTLYLQMNSLRAEDTAVYYCAYRRPGVPRRDAFDIWGQGTMVTVSS VL: DIQMTQSPSTLSASVGDRVTITCRASQSISSWLAWYQQKPGKAPNLLIYKASTLESGVPSRFSGSGSGTEFTLTISSLQPDDFATYYCQQYNTYWTFGQGTKVEIK",0.6
7,"M0202-B04 (Fab, V domains shown) VH: EVQLLESGGGLVQPGGSLRLSCAASGFTFSHYIMMWVRQAPGKGLEWVSGIYSSGGITVYADSVKGRFTISRDNSKNTLYLQMNSLRAEDTAVYYCAYRRSGVPRRDAFDIWGQGTMVTVSS VL: DIQMTQSPSTLSASVGDRVTITCRASQSISSWLAWYQQKPGKAPNLLIYKASTLESGVPSRFSGSGSGTEFTLTISSLQPDDFATYYCQQYNTYWTFGQGTKVEIK",0.2
8,"M0202-H05 (Fab, V domains shown, HC CDR3 variant of M0162-A04, tested as Fab) VH: EVQLLESGGGLVQPGGSLRLSCAASGFTFSHYIMMWVRQAPGKGLEWVSGIYSSGGITVYADSVKGRFTISRDNSKNTLYLQMNSLRAEDTAVYYCAYRRTGVPRRDVFDIWGQGTMVTVSS VL: DIQMTQSPSTLSASVGDRVTITCRASQSISSWLAWYQQKPGKAPNLLIYKASTLESGVPSRFSGSGSGTEFTLTISSLQPDDFATYYCQQYNTYWTFGQGTKVEIK",0.26
9,"M0202-F06 (Fab, V domains shown, HC CDR3 variant of M0162-A04, tested as Fab) VH: EVQLLESGGGLVQPGGSLRLSCAASGFTFSHYIMMWVRQAPGKGLEWVSGIYSSGGITVYADSVKGRFTISRDNSKNTLYLQMNSLRAEDTAVYYCAYRRTGVPRWDAFDIWGQGTMVTVSS VL: DIQMTQSPSTLSASVGDRVTITCRASQSISSWLAWYQQKPGKAPNLLIYKASTLESGVPSRFSGSGSGTEFTLTISSLQPDDFATYYCQQYNTYWTFGQGTKVEIK",0.33
10,"M0201-H08 (Fab, V domains shown, HC CDR3 variant of M0162-A04, tested as Fab) VH: EVQLLESGGGLVQPGGSLRLSCAASGFTFSHYIMMWVRQAPGKGLEWVSGIYSSGGITVYADSVKGRFTISRDNSKNTLYLQMNSLRAEDTAVYYCAYRRTGVPRRDALDNWGQGTMVTVSS VL: DIQMTQSPSTLSASVGDRVTITCRASQSISSWLAWYQQKPGKAPNLLIYKASTLESGVPSRFSGSGSGTEFTLTISSLQPDDFATYYCQQYNTYWTFGQGTKVEIK",0.8
11,"M0200-H07 (Fab, V domains shown, HC CDR3 variant of M0162-A04, tested as Fab) VH: EVQLLESGGGLVQPGGSLRLSCAASGFTFSHYIMMWVRQAPGKGLEWVSGIYSSGGITVYADSVKGRFTISRDNSKNTLYLQMNSLRAEDTAVYYCAYRRTGVPRRNAFDNWGQGTMVTVSS VL: DIQMTQSPSTLSASVGDRVTITCRASQSISSWLAWYQQKPGKAPNLLIYKASTLESGVPSRFSGSGSGTEFTLTISSLQPDDFATYYCQQYNTYWTFGQGTKVEIK",0.4
12,"M0202-G03 (Fab, V domains shown, HC CDR3 variant of M0162-A04, tested as Fab) VH: EVQLLESGGGLVQPGGSLRLSCAASGFTFSHYIMMWVRQAPGKGLEWVSGIYSSGGITVYADSVKGRFTISRDNSKNTLYLQMNSLRAEDTAVYYCAYRRTGVPRRDSFEIWGQGTMVTVSS VL: DIQMTQSPSTLSASVGDRVTITCRASQSISSWLAWYQQKPGKAPNLLIYKASTLESGVPSRFSGSGSGTEFTLTISSLQPDDFATYYCQQYNTYWTFGQGTKVEIK",0.4
13,"M0200-E11 (Fab, V domains shown, HC CDR3 variant of M0162-A04, tested as Fab) VH: EVQLLESGGGLVQPGGSLRLSCAASGFTFSHYIMMWVRQAPGKGLEWVSGIYSSGGITVYADSVKGRFTISRDNSKNTLYLQMNSLRAEDTAVYYCAYRRTGVPRRDAFDNWGQGTMVTVSS VL: DIQMTQSPSTLSASVGDRVTITCRASQSISSWLAWYQQKPGKAPNLLIYKASTLESGVPSRFSGSGSGTEFTLTISSLQPDDFATYYCQQYNTYWTFGQGTKVEIK",0.4
14,"M0202-Al2 (Fab, V domains shown, HC CDR3 variant of M0162-A04, tested as Fab; also called M0202-A12 (probable reading)) VH: EVQLLESGGGLVQPGGSLRLSCAASGFTFSHYIMMWVRQAPGKGLEWVSGIYSSGGITVYADSVKGRFTISRDNSKNTLYLQMNSLRAEDTAVYYCAYQRTGVPRRDSFNIWGQGTMVTVSS VL: DIQMTQSPSTLSASVGDRVTITCRASQSISSWLAWYQQKPGKAPNLLIYKASTLESGVPSRFSGSGSGTEFTLTISSLQPDDFATYYCQQYNTYWTFGQGTKVEIK",0.1
15,"M0202-A01 (Fab, V domains shown, HC CDR3 variant of M0162-A04, tested as Fab) VH: EVQLLESGGGLVQPGGSLRLSCAASGFTFSHYIMMWVRQAPGKGLEWVSGIYSSGGITVYADSVKGRFTISRDNSKNTLYLQMNSLRAEDTAVYYCAYRRIGVPRRDAFDIWGQGTMVTVSS VL: DIQMTQSPSTLSASVGDRVTITCRASQSISSWLAWYQQKPGKAPNLLIYKASTLESGVPSRFSGSGSGTEFTLTISSLQPDDFATYYCQQYNTYWTFGQGTKVEIK",0.3
16,"M0201-A06 (Fab, V domains shown, HC CDR3 variant of M0162-A04, tested as Fab) VH: EVQLLESGGGLVQPGGSLRLSCAASGFTFSHYIMMWVRQAPGKGLEWVSGIYSSGGITVYADSVKGRFTISRDNSKNTLYLQMNSLRAEDTAVYYCAYRRTGIPRRDVFDIWGQGTMVTVSS VL: DIQMTQSPSTLSASVGDRVTITCRASQSISSWLAWYQQKPGKAPNLLIYKASTLESGVPSRFSGSGSGTEFTLTISSLQPDDFATYYCQQYNTYWTFGQGTKVEIK",3.8
